According to patent US20240141027A1 (BIOARCTIC, published 2024):

B1: mAb158-scLc-8D3-Ig.2 (bispecific antibody, human IgG1, kappa)
heavy: not shown
chain: DIVMTQAPLSLPVSLGDQASISCRSSQSIVHSNGNTYLEWYLQKPGQSPKLLIYKVSNRFSGVPDRFSGSGSGTDFTLKISRVEAEDLGIYYCFQGSHVPPTFGGGTKLEIKRADAAPTVSIFPPSSEQLTSGGASVVCFLNNFYPKDINVKWKIDGSERQNGVLNSWTDQDSKDSTYSMSSTLTLTKDEYERHNSYTCEATHKTSTSPIVKSFNRNECGGGGSGGGGSGGGGSGGGGSGGGGSEVQLVESGGGLVQPGNSLTLSCVASGFTFSNYGMHWIRQAPKKGLEWIAMIYYDSSKMNYADTVKGRFTISRDNSKNTLYLEMNSLRSEDTAMYYCAVPTSHYVVDVWGQGVSVTVSSGGGGSGGGGSGGGGSDIQMTQSPASLSASLEEIVTITCQASQDIGNWLAWYQQKPGKSPQLLIYGATSLADGVPSRFSGSRSGTQFSLKISRVQVEDIGIYYCLQAYNTPWTFGGGTKLELKRGGGGSGGGGSGGGGSGGGGSGGGGSDIVMTQAPLSLPVSLGDQASISCRSSQSIVHSNGNTYLEWYLQKPGQSPKLLIYKVSNRFSGVPDRFSGSGSGTDFTLKISRVEAEDLGIYYCFQGSHVPPTFGGGTKLEIKRADAAPTVSIFPPSSEQLTSGGASVVCFLNNFYPKDINVKWKIDGSERQNGVLNSWTDQDSKDSTYSMSSTLTLTKDEYERHNSYTCEATHKTSTSPIVKSFNRNEC
notes: Format [LC-L1-scBM-L2-LC]
B2: 8D3 Fab (Fab, V domains shown)
VH: EVQLVESGGGLVQPGNSLTLSCVASGFTFSNYGMHWIRQAPKKGLEWIAMIYYDSSKMNYADTVKGRFTISRDNSKNTLYLEMNSLRSEDTAMYYCAVPTSHYVVDVWGQGVSVTVSS
VL: DIQMTQSPASLSASLEEIVTITCQASQDIGNWLAWYQQKPGKSPQLLIYGATSLADGVPSRFSGSRSGTQFSLKISRVQVEDIGIYYCLQAYNTPWTFGGGTKLELKR
notes: Anti-mouse TfR1 control; also called monovalent 8D3 Fab control; monovalent 8D3 Fab
B3: mAb158-scLc-8D3-Ig.3 (bispecific antibody, human IgG1, kappa)
heavy: not shown
chain: DIVMTQAPLSLPVSLGDQASISCRSSQSIVHSNGNTYLEWYLQKPGQSPKLLIYKVSNRFSGVPDRFSGSGSGTDFTLKISRVEAEDLGIYYCFQGSHVPPTFGGGTKLEIKRADAAPTVSIFPPSSEQLTSGGASVVCFLNNFYPKDINVKWKIDGSERQNGVLNSWTDQDSKDSTYSMSSTLTLTKDEYERHNSYTCEATHKTSTSPIVKSFNRNECGGSSGSGSGSTGTSSSGTGTSAGTTGTSASTSGSGSEVQLVESGGGLVQPGNSLTLSCVASGFTFSNYGMHWIRQAPKKGLEWIAMIYYDSSKMNYADTVKGRFTISRDNSKNTLYLEMNSLRSEDTAMYYCAVPTSHYVVDVWGQGVSVTVSSGGGGSGGGGSGGGGSDIQMTQSPASLSASLEEIVTITCQASQDIGNWLAWYQQKPGKSPQLLIYGATSLADGVPSRFSGSRSGTQFSLKISRVQVEDIGIYYCLQAYNTPWTFGGGTKLELKRGGSSGSGSGSTGTSSSGTGTSAGTTGTSASTSGSGSGGSSGSGSGSTGTSSSGTGTSAGTTGTSASTSGSGSDIVMTQAPLSLPVSLGDQASISCRSSQSIVHSNGNTYLEWYLQKPGQSPKLLIYKVSNRFSGVPDRFSGSGSGTDFTLKISRVEAEDLGIYYCFQGSHVPPTFGGGTKLEIKRADAAPTVSIFPPSSEQLTSGGASVVCFLNNFYPKDINVKWKIDGSERQNGVLNSWTDQDSKDSTYSMSSTLTLTKDEYERHNSYTCEATHKTSTSPIVKSFNRNEC
notes: Format [LC-L1-scBM-L2-LC]

What was measured:
[1] = target: T1, recombinant murine transferrin receptor 1 (mTfR1), extracellular domain fused to a His-tag (murine, UniProt Q62351 89-763); assay: indirect ELISA, plates coated with recombinant mTfR1
T1 construct: Position of the His-tag (N or C) unknown; also called recombinant mTfR1; murine TfR1; not shown: His-tag
T1 sequence (Q62351 89-763): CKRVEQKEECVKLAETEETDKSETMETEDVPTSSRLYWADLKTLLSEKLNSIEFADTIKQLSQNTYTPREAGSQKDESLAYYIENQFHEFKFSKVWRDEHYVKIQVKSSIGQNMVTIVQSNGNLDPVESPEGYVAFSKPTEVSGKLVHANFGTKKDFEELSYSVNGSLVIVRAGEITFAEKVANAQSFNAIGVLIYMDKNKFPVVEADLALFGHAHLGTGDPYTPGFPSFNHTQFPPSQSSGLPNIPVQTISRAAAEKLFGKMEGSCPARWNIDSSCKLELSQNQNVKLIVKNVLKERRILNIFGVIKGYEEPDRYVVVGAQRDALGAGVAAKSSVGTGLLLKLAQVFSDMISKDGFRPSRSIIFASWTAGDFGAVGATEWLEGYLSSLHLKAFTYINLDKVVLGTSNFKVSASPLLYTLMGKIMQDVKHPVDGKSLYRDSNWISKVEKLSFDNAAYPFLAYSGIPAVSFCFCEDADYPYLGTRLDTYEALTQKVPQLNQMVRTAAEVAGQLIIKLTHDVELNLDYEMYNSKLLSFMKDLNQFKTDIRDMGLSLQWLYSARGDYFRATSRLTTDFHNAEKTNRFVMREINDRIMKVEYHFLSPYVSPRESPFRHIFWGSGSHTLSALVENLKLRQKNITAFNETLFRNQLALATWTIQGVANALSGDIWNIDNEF
Method: Binding of selected expressed constructs to mTfR1 was assessed by indirect ELISA (FIG. 4). In brief, half area 96-well plates (Corning, #3690) were coated with 1 μg/ml recombinant mTfR1, produced as described in Example 4, in PBS overnight at 4° C. The coated plates were blocked using Pierce protein-free blocking solution (Thermo Fisher Scientific, #37572) for 1 h at room temperature with shaking and washed four times in PBS containing 0.1% TWEEN-20. Serial dilutions (1:3) of expressed constructs in incubation buffer (1% BSA, 0.1% TWEEN-20 in PBS) were incubated for 1 h at room temperature. Following the four wash steps, bound test constructs were detected by addition of anti-mouse-IgG F(ab′)2-HRP antibody (Jackson Immuno Research, #115-035-006) at 1:1250 dilution in incubation buffer (1 h, room temperature). Following four wash steps, K-Blue® Aqueous TMB substrate (Neogen, #331177) was added to the wells for 15 min at room temperature before the reaction was stopped with 1:1 dilution of 0.5 M H₂SO₄. The optical density at 450 nm was recorded (Spark, Tecan) and background signal was subtracted before analysis.

[2] = target: T2, mTfR1 expressed on cell surfaces of Immortalized Mouse Cerebral Capillary Endothelial Cells (cEND) (mouse, UniProt Q62351 1-763); assay: flow cytometry on cEND cells, 100 nM, 4° C., anti-mouse IgG-PE
T2 construct: whole, on cells; also called mTfR1 on cEND cells
T2 sequence (Q62351 whole entry): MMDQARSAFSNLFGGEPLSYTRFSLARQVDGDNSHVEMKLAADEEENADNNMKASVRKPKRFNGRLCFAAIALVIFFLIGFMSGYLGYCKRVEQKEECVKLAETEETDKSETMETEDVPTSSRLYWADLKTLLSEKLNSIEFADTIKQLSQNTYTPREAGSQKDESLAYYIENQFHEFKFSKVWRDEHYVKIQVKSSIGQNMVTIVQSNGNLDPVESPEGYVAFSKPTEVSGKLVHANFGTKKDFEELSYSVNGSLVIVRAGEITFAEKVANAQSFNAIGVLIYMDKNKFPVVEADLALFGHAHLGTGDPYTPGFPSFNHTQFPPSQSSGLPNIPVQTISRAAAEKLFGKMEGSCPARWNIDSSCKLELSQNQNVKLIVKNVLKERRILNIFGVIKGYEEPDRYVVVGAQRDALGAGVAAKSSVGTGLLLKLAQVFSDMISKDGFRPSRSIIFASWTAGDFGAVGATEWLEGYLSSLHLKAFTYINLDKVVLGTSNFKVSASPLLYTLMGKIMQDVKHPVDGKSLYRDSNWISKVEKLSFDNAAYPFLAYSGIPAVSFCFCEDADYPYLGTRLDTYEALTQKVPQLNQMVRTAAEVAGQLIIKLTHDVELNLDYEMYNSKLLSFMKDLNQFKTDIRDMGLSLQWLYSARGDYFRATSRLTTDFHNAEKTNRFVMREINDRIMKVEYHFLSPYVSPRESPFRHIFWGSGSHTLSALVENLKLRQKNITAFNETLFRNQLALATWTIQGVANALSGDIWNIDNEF
Method: Binding and uptake mediated by TfR1 was measured on Immortalized Mouse Cerebral Capillary Endothelial Cells (cEND) (ABM, #T0290).
The pellet was resuspended in PBS and 200,000 cells per well were seeded in U-bottom 96-well Corning plates for flow cytometry staining. Cells were then washed with PBS and incubated with 100 nM of one of the mAb158-8D3 constructs mAb158-scLc-8D3-Ig.1, mAb158-scLc-8D3-Ig.2 and mAb158-scLc-8D3-Ig.3, control 8D3 IgG (light chain of SEQ ID NO:17, heavy chain of SEQ ID NO:19) or murine IgG control for 45 min at 4° C. After primary incubation, cells were washed twice with ice cold PBS, and mAb158-8D3 constructs were captured using a fluorescently labeled secondary anti-mouse IgG-PE antibody (BD Biosciences, 550589). After incubation, cells were washed twice with PBS and resuspended in 200 μl PBS. Cells were acquired in a BD FACSLyric flow cytometer system (BD Biosciences) and samples were analyzed using FCS Express software (De Novo Software).

[3] = target: T1, recombinant murine transferrin receptor …; assay: SPR (Biacore 8K), mTfR1 amine-coupled on CM5 chip, single cycle kinetics
Method: Monovalent binding interaction for mAb158-scLc-8D3-Ig.8 against murine TfR1 was measured using surface plasmon resonance (Biacore 8K, Cytiva). A Cm5 sensor chip (Cytiva, #BR100399) was immobilized with 3 μg/ml of mTfR1 using the amine coupling kit type 2 (Cytiva, #BR100633) according to the manufacturer's instruction. A 2-fold dilution series in HBS-EP+(Cytiva, #BR100669) starting at 50 nM of analyte was injected in duplicates over the immobilized ligand and the interaction was measured using the single cycle kinetics method with a contact time of 160 s at a flow rate of […] followed by a dissociation time of 1000 s.

Binder	binding result [1]	binding result [2]	binding result [3]
B1	binds	binds	–
B2	–	–	binds
B3	binds	binds	–
